Twelve substances from paper PMC7593969 can be followed below.

One may read the Kd as the concentration at which binding is half-saturated. A low value points to higher affinity.

In one experiment the target is LMP7-Myc, P28062-2. Put plainly: co-IP (anti-Flag IP, anti-Myc IB), band intensity quantified. The following applies: 293T cells cotransfected for 24 h; parent: 100; read off a plot.
The target of experiment [1] is Nef(1 to 115)-(L112A)-GFP-Flag (HIV-1 (NL4-3)) (UniProt P03406). Put plainly: co-IP; HEK293T cotransfected 24 h with LMP7-Myc and GFP-Flag or Nef(1 to 115)-GFP-Flag constructs; anti-Flag IP; blot with anti-Myc.
Experiment [2] deals with Nef(1 to 115)-(L112A/Y115A)-GFP-Flag (HIV-1 (NL4-3)) (UniProt P03406). The experiment is described as above.
The target of experiment [3] is Nef(1 to 115)-(Y115A)-GFP-Flag (HIV-1 (NL4-3)) (UniProt P03406). The experiment is described as above.
A further experiment addresses proLMP7-Flag (UniProt P28062). Put plainly: co-IP; HEK293T cotransfected 24 h with Nef-HA constructs and LMP7-Flag constructs; RIPA lysates; anti-Flag antibody and protein G-Sepharose at 4°C overnight; blot with anti-HA.
The target in the next experiment is LMP7-His (biotinylated) (UniProt P28062). Put plainly: BLI; biotinylated LMP7 on streptavidin biosensors; GST or Nef-GST in solution; PBS; 1:1 binding model. (BLI is a label-free optical method that tracks binding on a fibre tip over time.)

Sequence of LMP7-Myc, P28062-2 (P28062 other isoform, or with tags, fused parts or gaps): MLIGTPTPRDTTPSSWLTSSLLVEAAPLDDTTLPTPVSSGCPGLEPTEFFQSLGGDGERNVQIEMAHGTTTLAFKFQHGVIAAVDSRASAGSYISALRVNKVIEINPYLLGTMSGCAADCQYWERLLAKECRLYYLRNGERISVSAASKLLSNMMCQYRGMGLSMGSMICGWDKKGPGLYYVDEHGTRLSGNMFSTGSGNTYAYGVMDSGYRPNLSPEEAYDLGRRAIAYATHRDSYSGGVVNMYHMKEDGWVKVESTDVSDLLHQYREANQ

As to “Nef(1 to 115)-GFP-Flag (from UniProt P03406) 105-108A”, the percent of parent with LMP7-Myc, P28062-2 was determined as 120%.

For the substance “Nef(1 to 115)-GFP-Flag (from UniProt P03406) I114A”, in the experiment with LMP7-Myc, P28062-2, the percent of parent came out at 47%. Turning to “Nef(1 to 115)-GFP-Flag (from UniProt P03406) I109A; L110A; D111A; L112A”, the percent of parent with LMP7-Myc, P28062-2 is 28%. On to “LMP7-Myc (from UniProt P28062-2 1-272) (natural protein)”, for which the relative co-IP band intensity (Nef(1 to 115) = 100%) in experiment [1] amounted to 19%; in experiment [2] it was 1.4%; in experiment [3], 14%. Consider “Nef(1 to 115)-GFP-Flag (from UniProt P03406) W113A”, for which the percent of parent with LMP7-Myc, P28062-2 was determined as 97%. Take “Nef(1 to 115)-GFP-Flag (from UniProt P03406) 101-104A”: in the experiment with LMP7-Myc, P28062-2, the percent of parent amounted to 53%. As for “Nef(1 to 115)-GFP-Flag (from UniProt P03406) W113A; I114A; Y115A”, the percent of parent with LMP7-Myc, P28062-2 is 31%. On the same count and under the same terms, for “Nef(1 to 115)-GFP-Flag (from UniProt P03406) I109A” the value was 60%; for “Nef(1 to 115)-GFP-Flag (from UniProt P03406) D111A”, 130%. Still for that read-out and setting: next, “Nef(1 to 115)-GFP-Flag (from UniProt P03406) L110A”: 60%. In the experiment with proLMP7-Flag, “Nef(1 to 130)-HA (from UniProt P03406 1-130) (domain or fragment)” had a strength of the interaction (co-IP band) relative to Nef(1 to 115) of 40 % higher and a strength of the interaction (co-IP band) relative to Nef(1 to 149) of 20 % stronger. Consider “Nef-GST (from UniProt P03406 1-206) (natural protein)”, for which, in the experiment with LMP7-His (biotinylated), the BLI wavelength shift worked out at 71.1 pm and the Kd worked out at 735 nM.
